From patent US6025158A, “Nucleic acids encoding humanized anti-IL-8 monoclonal antibodies” (Genentech, Inc., dated 2000)
Numbering of substitutions follows the chain as printed.

B1: F(ab)-9: humanized variant, F(ab)-6 with GluH6Gln (protein)
light: DIQMTQSPSSLSASVGDRVTITCRSSQSLVHGIGNTYLHWYQQKPGKAPKLLIYKVSNRFSGVPSRFSGSGSGTDFTLTISSLQPEDFATYYCSQSTHVPLTFGQGTKVEIKRTVAAPSVFIFPPSDEQLKSGTASVVCLLNNFYPREAKVQWKVDNALQSGNSQESVTEQDSKDSTYSLSSTLTLSKADYEKHKVYACEVTHQGLSSPVTKSFNRGEC
heavy: EVQLVQSGGGLVQPGGSLRLSCAASGYSFSSHYMHWVRQAPGKGLEWVGYIDPSNGETTYNQKFKGRFTLSRDNSKNTAYLQMNSLRAEDTAVYYCARGDYRYNGDWFFDVWGQGTLVTVSSASTKGPSVFPLAPSSKSTSGGTAALGCLVKDYFPEPVTVSWNSGALTSGVHTFPAVLQSSGLYSLSSVVTVPSSSLGTQTYICNVNHKPSNTKVDKKVEPKSCDKTHT
B2: 6G4V11N35E IgG1: full length IgG1 version of humanized anti-IL8 variant 6G4V11N35E (protein)
light: B1 light with N35E
heavy: B1 heavy

What was measured:
[1] = tested on: human monomeric IL-8; test: human monomeric IL-8 mediated neutrophil chemotaxis; assay type: cell-based
Protocol: Human neutrophils were isolated, counted and resuspended at 5×10^6 cells/ml in Hank's balanced salt solution (abbreviated HBSS; without calcium and magnesium) with 0.1% bovine serum albumin. The neutrophils were labeled by adding calcein AM (Molecular Probe, Eugene, Oreg.) at a final concentration of 2.0 μM. Following a 30 minute incubation at 37° C., cells were washed twice with HBSS-BSA and resuspended at 5×10^6 cells/ml.
Chemotaxis experiments were carried out in a Neuro Probe (Cabin John, Md.) 96-well chamber, model MBB96. Experimental samples (buffer only control, IL-8 alone or IL-8+Fabs) were loaded in a Polyfiltronics 96-well View plate (Neuro Probe Inc.) placed in the lower chamber. […]
The relative number of neutrophils migrating through the filter (Neutrophil migration index) was determined by measuring fluorescence intensity of the filter and the fluorescence intensity of the contents of the lower chamber and adding the two values together. Fluorescence intensity was measured with a CytoFluor 2300 fluorescent plate reader (Millipore Corp. Bedford, Mass.) configured to read a Corning 96-well plate using the 485-20 nm excitation filter and a 530-25 emission filter, with the sensitivity set at 3.

[2] = molecular target: IL-8 (Homo sapiens, UniProt P10145); test: KinEXA equilibrium and kinetic measurements; assay type: binding; details: read-out: equilibrium constant (Kd)
Sequence of IL-8 (P10145 28-99 limits assumed): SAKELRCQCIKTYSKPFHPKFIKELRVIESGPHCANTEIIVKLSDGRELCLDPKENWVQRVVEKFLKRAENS
Protocol: The beads were resuspended in assay buffer (0.1% bovine serum albumin in PBS) to a final volume of 30 ml.
The equilibrium constant (Kd) was calculated using the software provided by Sapidyne Instruments Inc.

| Molecule | IC50 [1] | Kd [2] |
| --- | --- | --- |
| B1 | ~15 nM | – |
| B2 | – | ~0.049 nM |
